Measured values reported in patent publication US20030215874A1 (published 2003).

Columns and labels:
[1] = biological target: the molecule itself; experiment: blue native PAGE (legend of FIG. 4), self-association
[2] = biological target: the molecule itself; experiment: blue native PAGE (BN-PAGE), self-association

B1: bis-ANS treated GRP94 (porcine pancreas GRP94 preincubated with bis-ANS) (other, UniProt Q29092 22-804, looked up)
chain: EDEVDVDGTVEEDLGKSREGSRTDDEVVQREEEAIQLDGLNASQIRELREKSEKFAFQAEVNRMMKLIINSLYKNKEIFLRELISNASDALDKIRLISLTDENALAGNEELTVKIKCDKEKNLLHVTDTGVGMTREELVKNLGTIAKSGTSEFLNKMAEAQEDGQSTSELIGQFGVGFYSAFLVADKVIVTSKHNNDTQHIWESDSNEFSVIADPRGNTLGRGTTITLVLKEEASDYLELDTIKNLVKKYSQFINFPIYVWSSKTETVEEPMEEEEAAKEEKEESDDEAAVEEEEEEKKPKTKKVEKTVWDWELMNDIKPIWQRPSKEVEDDEYKAFYKSFSKESDDPMAYIHFTAEGEVTFKSILFVPTSAPRGLFDEYGSKKSDYIKLYVRRVFITDDFHDMMPKYLNFVKGVVDSDDLPLNVSRETLQQHKLLKVIRKKLVRKTLDMIKKIADEKYNDTFWKEFGTNIKLGVIEDHSNRTRLAKLLRFQSSHHPSDITSLDQYVERMKEKQDKIYFMAGSSRKEAESSPFVERLLKKGYEVIYLTEPVDEYCIQALPEFDGKRFQNVAKEGVKFDESEKSKENREAVEKEFEPLLNWMKDKALKDKIEKAVVSQRLTESPCALVASQYGWSGNMERIMKAQAYQTGKDISTNYYASQKKTFEINPRHPLIRDMLRRVKEDEDDKTVSDLAVVLFETATLRSGYLLPDTKAYGDRIERMLRLSLNIDPDAKVEEEPEEEPEETTEDTTEDTEQDDDEEMDAGADEEEQETSETSTAEKDEL
B1: binds [1].

B2: GRP94 (glucose regulated protein of 94 kDa), native, purified from porcine pancreas (other, UniProt Q29092 22-804, looked up)
chain: B1 chain
notes: also called native GRP94; gp96
B2: binds [2].

B3: heat shocked GRP94 (porcine pancreas GRP94 incubated 15 minutes at 50 C) (other, UniProt Q29092 22-804, looked up)
chain: B1 chain
notes: also called hs GRP94; heat-treated GRP94
B3: binds [2].
